One block for each sequence: values may come before it.
Assays:
[1] = biological target: HLA-A*02:10; test: IEDB peptide-MHC binding, purified MHC/direct/fluorescence; filed as Kd, often an IC50 or EC50 that approximates it; ≥ and ≤ were set here for values at or beyond the usual limits of such assays; settings: source organism: Escherichia coli O157:H7 str. EC869
[2] = biological target: HLA-A*02:11; test: as above; settings: source organism: Escherichia coli O157:H7 str. EC869
[3] = biological target: HLA-A*02:50; test: as above; settings: source organism: Escherichia coli O157:H7 str. EC869
[4] = biological target: HLA-A*23:01; test: as above; settings: source organism: Escherichia coli O157:H7 str. EC869
[5] = biological target: HLA-A*24:03; test: as above; settings: source organism: Escherichia coli O157:H7 str. EC869
[6] = biological target: HLA-A*29:02; test: as above; settings: source organism: Escherichia coli O157:H7 str. EC869
[7] = biological target: HLA-A*30:01; test: as above; settings: source organism: Escherichia coli O157:H7 str. EC869
[8] = biological target: HLA-B*07:02; test: as above; settings: source organism: Escherichia coli O157:H7
[9] = biological target: HLA-B*15:01; test: as above; settings: source organism: Escherichia coli O157:H7 str. EC869
[10] = biological target: HLA-B*18:01; test: as above; settings: source organism: Escherichia coli O157:H7 str. EC869
[11] = biological target: HLA-B*40:01; test: as above; settings: source organism: Escherichia coli O157:H7 str. EC869
[12] = biological target: HLA-B*44:02; test: as above; settings: source organism: Escherichia coli O157:H7 str. EC869
[13] = biological target: HLA-B*51:01; test: as above; settings: source organism: Escherichia coli O157:H7
[14] = biological target: HLA-B*57:01; test: as above; settings: source organism: Escherichia coli O157:H7 str. EC869
[15] = biological target: HLA-B*58:01; test: as above; settings: source organism: Escherichia coli O157:H7 str. EC869
[16] = biological target: HLA-B*46:01; test: IEDB peptide-MHC binding, purified MHC/competitive/fluorescence; filed as Kd, often an IC50 or EC50 that approximates it; ≥ and ≤ were set here for values at or beyond the usual limits of such assays
[17] = biological target: HLA-A*02:01; test: as above; settings: source organism: Plesiomonas shigelloides
[18] = biological target: HLA-A*02:03; test: as above; settings: source organism: Plesiomonas shigelloides
[19] = biological target: HLA-A*02:12; test: as above; settings: source organism: Plesiomonas shigelloides
[20] = biological target: HLA-A*02:16; test: as above; settings: source organism: Plesiomonas shigelloides
[21] = biological target: HLA-A*02:19; test: as above; settings: source organism: Plesiomonas shigelloides
[22] = biological target: HLA-A*23:01; test: as above; settings: source organism: Plesiomonas shigelloides
[23] = biological target: HLA-A*24:03; test: as above; settings: source organism: Plesiomonas shigelloides
[24] = biological target: HLA-A*26:01; test: as above; settings: source organism: Plesiomonas shigelloides
[25] = biological target: HLA-A*29:02; test: as above; settings: source organism: Plesiomonas shigelloides
[26] = biological target: HLA-A*68:02; test: as above; settings: source organism: Plesiomonas shigelloides
[27] = biological target: HLA-A*69:01; test: as above; settings: source organism: Plesiomonas shigelloides
[28] = biological target: HLA-A*80:01; test: as above; settings: source organism: Plesiomonas shigelloides
[29] = biological target: HLA-B*27:03; test: as above; settings: source organism: Plesiomonas shigelloides
[30] = biological target: HLA-B*39:01; test: as above; settings: source organism: Plesiomonas shigelloides
[31] = biological target: HLA-B*51:01; test: as above; settings: source organism: Plesiomonas shigelloides
[32] = biological target: HLA-B*57:01; test: as above; settings: source organism: Plesiomonas shigelloides
[33] = biological target: HLA-A*01:01; test: IEDB peptide-MHC binding, purified MHC/competitive/fluorescence; ≥ and ≤ were set here for values at or beyond the usual limits of such assays; settings: source organism: Homo sapiens
[34] = biological target: HLA-A*02:01; test: as above; settings: source organism: Homo sapiens
[35] = biological target: HLA-A*03:01; test: as above; settings: source organism: Homo sapiens
[36] = biological target: HLA-A*11:01; test: as above; settings: source organism: Homo sapiens
[37] = biological target: HLA-A*24:02; test: as above; settings: source organism: Homo sapiens
[38] = biological target: HLA-A*25:01; test: as above; settings: source organism: Homo sapiens
[39] = biological target: HLA-A*29:02; test: as above; settings: source organism: Homo sapiens
[40] = biological target: HLA-A*31:01; test: as above; settings: source organism: Homo sapiens
[41] = biological target: HLA-A*68:02; test: as above; settings: source organism: Homo sapiens
[42] = biological target: HLA-B*07:02; test: as above; settings: source organism: Homo sapiens
[43] = biological target: HLA-B*08:01; test: as above; settings: source organism: Homo sapiens
[44] = biological target: HLA-B*14:02; test: as above; settings: source organism: Homo sapiens
[45] = biological target: HLA-B*18:01; test: as above; settings: source organism: Homo sapiens
[46] = biological target: HLA-B*35:01; test: as above; settings: source organism: Homo sapiens
[47] = biological target: HLA-B*37:01; test: as above; settings: source organism: Homo sapiens
[48] = biological target: HLA-B*40:02; test: as above; settings: source organism: Homo sapiens
[49] = biological target: HLA-B*44:03; test: as above; settings: source organism: Homo sapiens
[50] = biological target: HLA-B*51:01; test: as above; settings: source organism: Homo sapiens
[51] = biological target: HLA-B*53:01; test: as above; settings: source organism: Homo sapiens
[52] = biological target: HLA-B*58:01; test: as above; settings: source organism: Homo sapiens

Kd [1]: ≥ 20 µM
Kd [2]: ≥ 20 µM
Kd [3]: ≥ 20 µM
Kd [4]: ≥ 20 µM
Kd [5]: ≥ 20 µM
Kd [6]: ≥ 20 µM
Kd [7]: ≥ 20 µM
Kd [8]: 0.316 µM
Kd [9]: 0.031 µM
Kd [10]: ≥ 20 µM
Kd [11]: ≥ 20 µM
Kd [12]: ≥ 20 µM
Kd [13]: ≥ 20 µM
Kd [14]: ≥ 20 µM
Kd [15]: ≥ 20 µM
Kd ([16]; source organism: Escherichia coli str. K-12 substr. MG1655): 3 µM
Sequence: ESMMGSTAM

Sequence: LLFRMILNY
Kd [17]: ≥ 20 µM
Kd [18]: ≥ 20 µM
Kd [19]: ≥ 20 µM
Kd [20]: ≥ 20 µM
Kd [21]: ≥ 20 µM
Kd [22]: ≥ 20 µM
Kd [23]: ≥ 20 µM
Kd [24]: ≥ 20 µM
Kd [25]: 0.005 µM
Kd [26]: ≥ 20 µM
Kd [27]: ≥ 20 µM
Kd [28]: 0.0259 µM
Kd [29]: ≥ 20 µM
Kd [30]: ≥ 20 µM
Kd ([16]; source organism: Plesiomonas shigelloides): ≥ 20 µM
Kd [31]: ≥ 20 µM
Kd [32]: ≥ 20 µM

IC50 [33]: ≥ 20 µM
IC50 [34]: 2.91 µM
IC50 [35]: ≥ 20 µM
IC50 [36]: ≥ 20 µM
IC50 [37]: 1.13 µM
IC50 [38]: ≥ 20 µM
IC50 [39]: 0.661 µM
IC50 [40]: ≥ 20 µM
IC50 [41]: 3.62 µM
IC50 [42]: ≥ 20 µM
IC50 [43]: ≥ 20 µM
IC50 [44]: 15.1 µM
IC50 [45]: ≥ 20 µM
IC50 [46]: ≥ 20 µM
IC50 [47]: ≥ 20 µM
IC50 [48]: ≥ 20 µM
IC50 [49]: ≥ 20 µM
IC50 [50]: ≥ 20 µM
IC50 [51]: ≥ 20 µM
IC50 [52]: ≥ 20 µM
Sequence: YFYYNAFHWAI
